Source: patent US20090240036A1 (Eli Lilly, published 2009)
Residue numbers refer to the chain shown, from its start. One block for each molecule: values may come before it.

How the values were obtained:
[1] = biological target: Human IL-23 (heterodimer of p19 and p40 subunits) (human) (UniProt P29460); assay: BIAcore SPR, antibody captured on protein A, human IL-23 flowed, HBS-EP pH 7.4, 25 C
[2] = biological target: Human IL-23 (heterodimer of p19 and p40 subunits) (human) (UniProt P29460); assay: cell-based or functional assay
[3] = biological target: T1, Human IL-23 (heterodimer of p19 and p40 subunits) (human, UniProt P29460 23-328); assay: BIAcore SPR, antibody captured on protein A, human IL-23 flowed, HBS-EP pH 7.4, 25 C
T1 construct: also called hIL-23; human IL-23 (R and D Systems)
T1 sequence 1: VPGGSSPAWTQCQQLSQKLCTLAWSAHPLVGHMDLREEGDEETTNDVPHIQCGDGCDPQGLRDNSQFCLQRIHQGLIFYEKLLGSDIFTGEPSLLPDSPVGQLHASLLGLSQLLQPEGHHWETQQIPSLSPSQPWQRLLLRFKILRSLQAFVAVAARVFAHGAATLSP
T1 sequence 2: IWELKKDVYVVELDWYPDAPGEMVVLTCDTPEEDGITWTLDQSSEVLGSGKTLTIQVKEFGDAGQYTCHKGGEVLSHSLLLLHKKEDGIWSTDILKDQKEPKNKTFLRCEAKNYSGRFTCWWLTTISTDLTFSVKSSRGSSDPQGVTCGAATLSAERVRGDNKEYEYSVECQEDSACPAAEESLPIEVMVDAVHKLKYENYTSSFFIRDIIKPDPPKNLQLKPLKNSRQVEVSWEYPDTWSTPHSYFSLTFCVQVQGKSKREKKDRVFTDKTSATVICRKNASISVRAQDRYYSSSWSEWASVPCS
Protocol: Affinities of MAb3A8 and antibodies of the present invention are determined using BIAcore measurements (Table 3). BIAcore™ is an automated biosensor system that measures molecular interactions. (Karlsson, et al. (1991) J. Immunol. Methods 145: 229-240). In these experiments antibody is captured to a surface at low density on a BIAcore™ chip. Ethyl-dimethylaminopropyl-carbodiimide (EDC) is used to couple reactive amino groups to protein A to a flow cell of a carboxy-methyl (CM5) BIAcore™ sensor chip. Protein A is diluted in sodium acetate buffer, pH 4.5, and immobilized on a flow cell of a CM5 chip using EDC to yield 1000 response units. Unreacted sites are blocked with ethanolamine. A flow rate of 60 μl/min is used. Multiple binding/elution cycles are performed by injection a 10 μl solution of 2 μg/mL of the antibodies of the present invention. followed by human IL-23 at decreasing concentrations for each cycle (e.g. 1500, 750, 375, 188, 94, 47, 23.5, 12, and 0 picomolar). Elution is performed with glycine-HCl, pH 1.5. BIAevaluation™ is used to analyze the kinetic data.

[4] = biological target: T1, Human IL-23 (heterodimer of p19 and p40 …); assay: cell-based or functional assay

Kd [1]: 21.4 nM | koff [1]: 0.000768 s⁻¹ | kon [1]: 36800 M⁻¹ s⁻¹ | IC50 Measured in the Murine Splenocyte Assay [2]: 2.8 nM
Molecule: MAB1290, anti-human IL-23 monoclonal antibody, murine (R&D Systems)

Kd [3]: 0.074 nM | koff [3]: 0.000115 s⁻¹ | kon [3]: 1.55e+06 M⁻¹ s⁻¹ | IC50 Measured in the Murine Splenocyte Assay [4]: 0.002 nM
B1: MAbQF20 (antibody, human IgG1, kappa, V domains shown)
VH: QVQLVQSGAEVKKPGASVKVSCKVSGKTFWSYGINWVRQAPGKGLEWMGYIYIGTGYTEPNPKYKGRVTMTEDTSTDTAYMELSSLRSEDTAVYYCATIGGYYGNFADWGQGTTVTVSS
VL: DVVMTQSPLSLPVTLGQPASISCRSSQSLLISGGKTYLNWFQQRPGQSPRRLIYLVSKLDQGVPDRFSGSGSGTDFTLKISRVEAEDVGVYYCWQGTYFPLTFGQGTKLEIKR
notes: Humanized antibody derived from MAb3A8

Kd [3]: 0.098 nM | koff [3]: 0.000153 s⁻¹ | kon [3]: 1.55e+06 M⁻¹ s⁻¹ | IC50 Measured in the Murine Splenocyte Assay [4]: 0.002 nM
B2: MAbQF37 (antibody, human IgG1, kappa, V domains shown)
VH: B1 VH with A107D, D108Q
VL: B1 VL
notes: as for B1
